Usually Kd stands for the free concentration of one partner at which half of the binding sites on the other are occupied at equilibrium, for simple one-to-one binding. A lower Kd goes with higher affinity.

The source of these data is the Immune Epitope Database (IEDB).

Holding throughout (settings): source organism: Rickettsia bellii OSU 85-389
Assay [1] addresses HLA-A*29:02. The experiment in a line: IEDB peptide-MHC binding, purified MHC/direct/fluorescence; filed as Kd, often an IC50 or EC50 that approximates it; ≥ and ≤ were set here for values at or beyond the usual limits of such assays.
Assay [2] concerns the target HLA-A*03:01. The assay is described as above.
In assay [3] the target is HLA-A*02:11. The description is as above.
In assay [4] the target is HLA-B*57:01. The assay is described as above.
For assay [5], the target named is HLA-A*02:03. The assay is described as above.
Assay [6] deals with HLA-B*15:01. The assay is described as above.
For assay [7], the target named is HLA-B*15:17. The assay is described as above.
Assay [8] deals with HLA-B*39:01. The description is as above.
Assay [9] has as its target HLA-A*02:01. The description is as above.
For assay [10], the target named is HLA-A*26:01. Described as above.
Assay [11] has as its target HLA-B*44:02. The experiment in a line: IEDB peptide-MHC binding, purified MHC/competitive/fluorescence; filed as Kd, often an IC50 or EC50 that approximates it; ≥ and ≤ were set here for values at or beyond the usual limits of such assays.
Assay [12] deals with HLA-A*01:01. The description is as above.
The target of assay [13] is HLA-A*66:01. Described as above.
Assay [14] concerns the target HLA-B*53:01. The description is as above.
Assay [15] concerns the target HLA-A*30:01. Described as above.
Assay [16] deals with HLA-B*07:02. Described as above.
Assay [17] addresses HLA-B*40:01. Described as above.
For assay [18], the target named is HLA-A*23:01. The assay is described as above.
The target in assay [19] is HLA-B*27:05. Described as above.
Assay [20] addresses HLA-B*14:02. The description is as above.
For assay [21], the target named is HLA-B*58:01. The assay is described as above.
Assay [22] addresses HLA-B*08:01. Described as above.
The target in assay [23] is HLA-A*11:01. The assay is described as above.
In assay [24] the target is HLA-A*30:02. Described as above.

Turning to EDFEIFYNL, the Kd in assay [1], in assay [2], in assay [3], in [4], in assay [5] and in assay [6] was at least 20 µM each time. Besides, the Kd in [7] was at least 20 µM; in [8], at least 20 µM; in assay [9] it was at least 20 µM; in [10] it was at least 20 µM; in assay [11], at least 5 µM; in assay [12], at least 5 µM. The Kd in [13], in assay [14], in [15], in [16], in assay [17] and in assay [18] was at least 5 µM throughout. Further, the Kd in assay [19], in [20], in assay [21], in assay [22], in assay [23] and in assay [24] was at least 5 µM in each case.
